Columns and labels:
[1] = biological target: T1, CcDHAD (dihydroxyacid dehydratase) (Caulobacter vibrioides, UniProt Q9A9Z2); test: inhibition of D-gluconate dehydration (experimental analysis in Figure S2); type: biochemical
T1 construct: gene xylD; codon-optimised gene in pET28a, recombinant in E. coli BL21(DE3), purified on His GraviTrap; MnCl2 added before freezing
T1 sequence (Q9A9Z2 1-595): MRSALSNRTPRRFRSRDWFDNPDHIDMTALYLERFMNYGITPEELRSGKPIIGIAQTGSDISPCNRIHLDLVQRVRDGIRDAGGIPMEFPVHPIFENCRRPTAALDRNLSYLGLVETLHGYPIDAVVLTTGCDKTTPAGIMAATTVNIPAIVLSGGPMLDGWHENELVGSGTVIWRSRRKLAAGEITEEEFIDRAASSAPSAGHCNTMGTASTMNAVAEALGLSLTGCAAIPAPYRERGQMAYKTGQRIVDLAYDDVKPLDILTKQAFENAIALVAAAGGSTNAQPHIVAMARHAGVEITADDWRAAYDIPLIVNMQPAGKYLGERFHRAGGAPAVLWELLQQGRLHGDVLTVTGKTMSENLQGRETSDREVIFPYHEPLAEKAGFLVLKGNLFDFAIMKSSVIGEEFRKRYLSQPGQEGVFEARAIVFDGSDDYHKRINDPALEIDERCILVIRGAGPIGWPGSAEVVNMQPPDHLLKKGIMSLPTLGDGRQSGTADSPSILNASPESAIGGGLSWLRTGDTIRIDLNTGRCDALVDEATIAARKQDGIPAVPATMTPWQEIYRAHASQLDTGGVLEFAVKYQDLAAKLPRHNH

purified protein [2] = substrate: O=C(O)C(=O)C[C@H](O)[C@H](O)CO; test: purified protein; type: biochemical, Picrophilus oshimae; details: 0.03-3 mM KDG, 1 mM NAD, 50 °C, 100 mM HEPES pH 7.35, 100 mM ammonium sulfate
purified protein [3] = substrate: O=C[C@H](O)CO; test: purified protein; details: substrate not named in table (D-glyceraldehyde from the cascade), cofactor NAD, 50 °C, 100 mM HEPES pH 7.35, 100 mM ammonium sulfate
purified protein [4] = substrate: NC(=O)c1ccc[n+]([C@@H]2O[C@H](COP(=O)(O)OP(=O)(O)OC[C@H]3O[C@@H](n4cnc5c(N)ncnc54)[C@H](O)[C@@H]3O)[C@@H](O)[C@H]2O)c1; test: purified protein; type: biochemical, Methanocaldococcus jannaschii; details: 50 °C, 100 mM HEPES pH 7.35, 100 mM ammonium sulfate, varied: cofactor
purified protein [5] = substrate: O=C(O)[C@H](O)[C@@H](O)[C@H](O)[C@H](O)CO; test: purified protein; type: biochemical, Caulobacter vibrioides; details: 0.2-20 mM D-gluconate, 1 mM NAD, 50 °C, 100 mM HEPES pH 7.35, 100 mM ammonium sulfate, enzyme stored with MnCl2
purified protein [6] = substrate: NC(=O)C1=CN([C@@H]2O[C@H](COP(=O)(O)OP(=O)(O)OC[C@H]3O[C@@H](n4cnc5c(N)ncnc54)[C@H](O)[C@@H]3O)[C@@H](O)[C@H]2O)C=CC1; test: purified protein; type: biochemical, Archaeoglobus fulgidus; details: 0.005-0.3 mM NADH, 1 mM pyruvate, 100 mM (NH4)2SO4, 50 °C, 100 mM HEPES pH 7.35, varied: cofactor
purified protein [7] = substrate: CC(=O)C(=O)O; test: purified protein; type: biochemical, Archaeoglobus fulgidus; details: 0.1-1 mM pyruvate, 0.2 mM NADH, 100 mM (NH4)2SO4, 50 °C, 100 mM HEPES pH 7.35

For O=C(O)[C@H](O)CO [D-glycerate], the Ki [1] was about 500 µM.

B1: PtKDGA (2-keto-3-deoxygluconate aldolase) (Picrophilus oshimae DSM 9789) (protein)
chain: MITPLDAHGNIDYNATNILIKYLEGINVDYLFPMGSTGVFPYFTLKERKDFLKFVRENSKKPIMAGVGSSSINEVNELMKFSMDIGIEAAVLMPPYYIKLNQEAIYHYYKEILSSNDMDLLIYNIPQFTNKIDPETVKNLKSEFSSVKGVKDSSADIRGFMEMLSLSDDDFAVFQGQDDLLFTSLELGASGGVCGTTNFSDGIVRLYHEYKNNREMALKIEKNDVIPLMKKLGKYQFPNAYYEYFYKKNNINGGYRPPMYRVGIEI
notes: codon-optimised gene in pET28a, recombinant in E. coli BL21(DE3), heat treated (65 °C) and purified on His GraviTrap
For B1, the Km (purified protein [2]) was 1100 µM.

B2: MjALDH (aldehyde dehydrogenase) (Methanocaldococcus jannaschii DSM 2661) (protein)
chain: MFIDGKWINREDMDVINPYSLEVIKKIPALSREEAKEAIDTAEKYKEVMKNLPITKRYNILMNIAKQIKEKKEELAKILAIDAGKPIKQARVEVERSIGTFKLAAFYVKEHRDEVIPSDDRLIFTRREPVGIVGAITPFNFPLNLSAHKIAPAIATGNVIVHHPSSKAPLVCIELAKIIENALKKYNVPLGVYNLLTGAGEVVGDEIVVNEKVNMISFTGSSKVGELITKKAGFKKIALELGGVNPNIVLKDADLNKAVNALIKGSFIYAGQVCISVGMILVDESIADKFIEMFVNKAKVLNVGNPLDEKTDVGPLISVEHAEWVEKVVEKAIDEGGKLLLGGKRDKALFYPTILEVDRDNILCKTETFAPVIPIIRTNEEEMIDIANSTEYGLHSAIFTNDINKSLKFAENLEFGGVVINDSSLFRQDNMPFGGVKKSGLGREGVKYAMEEMSNIKTIIISK
notes: codon-optimised gene in pET28a (NcoI/XhoI), recombinant in E. coli BL21(DE3), purified by heat treatment (70 °C) and desalting
B2 was tested, and the Km (purified protein [3]) was 300 µM and the Km (purified protein [4]) was 300 µM.

B3: CcDHAD (dihydroxyacid dehydratase) (Caulobacter vibrioides CB15) (protein)
chain: T1 sequence (Q9A9Z2 1-595)
notes: codon-optimised gene in pET28a, recombinant in E. coli BL21(DE3), purified on His GraviTrap; MnCl2 added before freezing
B3 showed a Km (purified protein [5]) of 3200 µM.

B4: AfAlaDH (L-alanine dehydrogenase) (Archaeoglobus fulgidus DSM 4304) (protein)
chain: METLILTQEEVESLISMDEAMNAVEEAFRLYALGKAQMPPKVYLEFEKGDLRAMPAHLMGYAGLKWVNSHPGNPDKGLPTVMALMILNSPETGFPLAVMDATYTTSLRTGAAGGIAAKYLARKNSSVFGFIGCGTQAYFQLEALRRVFDIGEVKAYDVREKAAKKFVSYCEDRGISASVQPAEEASRCDVLVTTTPSRKPVVKAEWVEEGTHINAIGADGPGKQELDVEILKKAKIVVDDLEQAKHGGEINVAVSKGVIGVEDVHATIGEVIAGLKDGRESDEEITIFDSTGLAIQDVAVAKVVYENALSKNVGSKIKFFRI
notes: codon-optimised gene in pET24a, recombinant in E. coli BL21(DE3), purified by heat treatment (70 °C) and desalting
B4 showed a Km (purified protein [6]) of 60 µM and a Km (purified protein [7]) of 200 µM.

Source: article PMC6692406, “Optimization of a reduced enzymatic reaction cascade for the production of L-alanine” (Scientific Reports, 2019)
